Measurements as given in paper PMC3034952 (Enzyme Research, 2011).
Substitutions are numbered along the chain they refer to. In names and notes the source's numbering stands.

T1: Arabidopsis thaliana pyruvate dehydrogenase-kinase (AtPDK), wild type, bacterial two-hybrid fusion in pBT (Arabidopsis thaliana, UniProt Q9SBJ1 1-366)
T1 sequence (looked up): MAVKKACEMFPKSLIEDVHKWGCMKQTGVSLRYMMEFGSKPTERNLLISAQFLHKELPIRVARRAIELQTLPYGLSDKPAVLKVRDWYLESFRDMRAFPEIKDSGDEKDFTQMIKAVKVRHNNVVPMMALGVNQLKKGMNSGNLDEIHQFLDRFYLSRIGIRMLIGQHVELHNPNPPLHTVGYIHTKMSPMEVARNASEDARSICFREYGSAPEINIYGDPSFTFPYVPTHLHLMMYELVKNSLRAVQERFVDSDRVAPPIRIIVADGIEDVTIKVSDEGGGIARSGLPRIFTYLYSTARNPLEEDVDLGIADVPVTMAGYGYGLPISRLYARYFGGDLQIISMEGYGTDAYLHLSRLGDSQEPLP

B1: AtPDC E1 (AtE1; recombinant alpha2beta2 pyruvate dehydrogenase) (Arabidopsis thaliana) (protein)
chain 1: SAAFSRLISTDTTPITIETSLPFTAHLCDPPSRSVESSSQELLDFFRTMALMRRMEIAADSLYKAKLIRGFCHLYDGQEAVAIGMEAAITKKDAIITAYRDHCIFLGRGGSLHEVFSELMGRQAGCSKGKGGSMHFYKKESSFYGGHGIVGAQVPLGCGIAFAQKYNKEEAVTFALYGDGAANQGQLFEALNISALWDLPAILVCENNHYGMGTAEWRAAKSPSYYKRGDYVPGLKVDGMDAFAVKQACKFAKQHALEKGPIILEMDTYRYHGHSMSDPGSTYRTRDEISGVRQERDPIERIKKLVLSHDLATEKELKDMEKEIRKEVDDAIAKAKDCPMPEPSELFTNVYVKGFGTESFGPDRKEVKASLP
chain 2: AAGAKEMTVRDALNSAIDEEMSADPKVFVMGEEVGQYQGAYKITKGLLEKYGPERVYDTPITEAGFTGIGVGAAYAGLKPVVEFMTFNFSMQAIDHIINSAAKSNYMSAGQINVPIVFRGPNGAAAGVGAQHSQCYAAWYASVPGLKVLAPYSAEDARGLLKAAIRDPDPVVFLENELLYGESFPISEEALDSSFCLPIGKAKIEREGKDVTIVTFSKMVGFALKAAEKLAEEGISAEVINLRSIRPLDRATINASVRKTSRLVTVEEGFPQHGVCAEICASVVEESFSYLDAPVERIAGADVPMPYAANLERLALPQIEDIVRASKRACYRSK
notes: co-expressed in E. coli with GroE; alpha2beta2 heterotetramer, Mr 160,000
B2: AtPDC E1 (AtE1; recombinant alpha2beta2 pyruvate dehydrogenase) (Arabidopsis thaliana; P52901:G297D) (protein)
chain 1: B1 chain 1 with G280D
chain 2: B1 chain 2
notes: as for B1
B3: AtPDC E1 (AtE1; recombinant alpha2beta2 pyruvate dehydrogenase) (Arabidopsis thaliana; P52901:D295A) (protein)
chain 1: B1 chain 1 with D278A
chain 2: B1 chain 2
notes: as for B1
B4: AtPDC E1 (AtE1; recombinant alpha2beta2 pyruvate dehydrogenase) (Arabidopsis thaliana; P52901:D295N) (protein)
chain 1: B1 chain 1 with D278N
chain 2: B1 chain 2
notes: as for B1
B5: AtPDC E1α, wild type, bacterial two-hybrid fusion in pTRG (enzyme, Arabidopsis thaliana, UniProt P52901 1-389, looked up)
chain: MALSRLSSRSNIITRPFSAAFSRLISTDTTPITIETSLPFTAHLCDPPSRSVESSSQELLDFFRTMALMRRMEIAADSLYKAKLIRGFCHLYDGQEAVAIGMEAAITKKDAIITAYRDHCIFLGRGGSLHEVFSELMGRQAGCSKGKGGSMHFYKKESSFYGGHGIVGAQVPLGCGIAFAQKYNKEEAVTFALYGDGAANQGQLFEALNISALWDLPAILVCENNHYGMGTAEWRAAKSPSYYKRGDYVPGLKVDGMDAFAVKQACKFAKQHALEKGPIILEMDTYRYHGHSMSDPGSTYRTRDEISGVRQERDPIERIKKLVLSHDLATEKELKDMEKEIRKEVDDAIAKAKDCPMPEPSELFTNVYVKGFGTESFGPDRKEVKASLP

What was measured:
purified protein = substrate: CC(=O)C(=O)O; test: purified protein; assay type: biochemical, Arabidopsis thaliana; details: 1.8 μM K3Fe(CN)6 as electron acceptor, 30°C, labelled compound
[1] = target: T1, Arabidopsis thaliana pyruvate …; test: two-hybrid; bacterial two-hybrid (BacterioMatch I, Stratagene): AtPDK in pBT, E1α constructs in pTRG, cotransformed into the E. coli reporter strain; quantified by β-galactosidase activity with o-nitrophenyl-β-D-galactoside; details: partners not purified

β-galactosidase reporter activity (100% of WT) [1] [μmol min^−1 1.0 A600^−1]	Binder	Km (purified protein) [µM]	kcat (purified protein) [s⁻¹]	kcat/Km (purified protein) [M⁻¹ s⁻¹]
–	B1	45 ± 18	159 ± 14	3.5e+06
–	B2	66 ± 24	70 ± 7	1e+06
–	B3	178 ± 108	52 ± 12	300000
–	B4	257 ± 144	38 ± 10	100000
3	B5	–	–	–
